{"source": "patent US20160280748", "key": {"[1]": {"tested_on": "+36 GFP-(GGS)4-ALAL-(GGS)4-Cre-His6", "sequence (chain, as listed by the source)": "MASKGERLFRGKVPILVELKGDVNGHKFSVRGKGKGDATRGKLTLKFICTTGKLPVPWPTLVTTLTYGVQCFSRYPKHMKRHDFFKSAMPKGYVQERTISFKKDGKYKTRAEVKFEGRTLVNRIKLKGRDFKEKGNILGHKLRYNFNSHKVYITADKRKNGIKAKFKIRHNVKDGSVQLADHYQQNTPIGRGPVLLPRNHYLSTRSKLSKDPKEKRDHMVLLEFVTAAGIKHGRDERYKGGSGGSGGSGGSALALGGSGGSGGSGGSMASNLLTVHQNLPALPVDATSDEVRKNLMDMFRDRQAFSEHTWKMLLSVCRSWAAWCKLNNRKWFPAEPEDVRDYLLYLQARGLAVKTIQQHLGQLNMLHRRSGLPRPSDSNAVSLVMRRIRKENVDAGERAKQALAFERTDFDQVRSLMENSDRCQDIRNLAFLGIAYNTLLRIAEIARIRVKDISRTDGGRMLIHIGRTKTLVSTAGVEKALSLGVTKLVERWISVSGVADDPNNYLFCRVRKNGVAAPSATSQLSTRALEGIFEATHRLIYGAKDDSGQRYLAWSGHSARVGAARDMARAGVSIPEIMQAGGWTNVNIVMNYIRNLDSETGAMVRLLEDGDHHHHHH"}, "[2]": {"tested_on": "+36 GFP-(GGS)4-ALAL-(GGS)4-mCherry-His6", "sequence (chain, as listed by the source)": "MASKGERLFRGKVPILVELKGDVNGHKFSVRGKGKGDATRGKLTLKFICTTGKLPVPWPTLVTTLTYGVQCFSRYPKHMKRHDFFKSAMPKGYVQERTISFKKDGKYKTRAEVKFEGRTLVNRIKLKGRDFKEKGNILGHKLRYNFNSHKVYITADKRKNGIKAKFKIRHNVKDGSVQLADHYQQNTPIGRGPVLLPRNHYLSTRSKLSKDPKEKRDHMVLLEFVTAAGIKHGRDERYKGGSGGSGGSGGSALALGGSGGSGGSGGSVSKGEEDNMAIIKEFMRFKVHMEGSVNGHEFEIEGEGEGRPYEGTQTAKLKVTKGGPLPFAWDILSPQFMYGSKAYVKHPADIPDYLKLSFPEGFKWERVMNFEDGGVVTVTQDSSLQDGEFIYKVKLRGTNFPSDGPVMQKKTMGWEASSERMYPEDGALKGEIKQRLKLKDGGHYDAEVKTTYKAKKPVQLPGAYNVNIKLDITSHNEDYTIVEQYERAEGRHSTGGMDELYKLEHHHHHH"}}}
{"substance": "cathepsin B from human liver (Sigma)", "values": [{"measurement": "cleavage of the fusion protein in vitro (gel)", "setting": "[1]", "value": "the +36 GFP-Cre fusion was indeed cleaved into two protein fragments with lengths consistent with separated +36 GFP and Cre"}, {"measurement": "cleavage of the fusion protein in vitro (gel)", "setting": "[2]", "value": "Cleavage of +36 GFP-mCherry fusion. ... lane 4: +36 GFP-mCherry fusion after treatment with 500 ng cathepsin B for 45 min at 37 °C"}]}
